The DeepSol protein solubility set

Experiment: soluble on expression in E. coli; label from the status in PepcDB or PDB records

Sequence | soluble on expression in E. coli
MKILVYGINYSPELTGIGKYTGEMVEWLAAQGHEVRVITAPPYYPQWQVGENYSAWRYKREEGAATVWRCPLYVPKQPSTLKRLLHLGSFAVSSFFPLMAQRRWKPDRIIGVVPTLFCAPGMRLLAKLSGARTVLHIQDYEVDAMLGLGLAGKGKGGKVAQLATAFERSGLHNVDNVSTISRSMMNKAIEKGVAAENVIFFPNWSEIARFQHVADADVDALRNQLDLPDNKKIILYSGNIGEKQGLENVIEAADRLRDEPLIFAIVGQGGGKARLEKMAQQRGLRNMQFFPLQSYDALPALLKMGDCHLVVQKRGAADAVLPSKLTNILAVGGNAVITAEAYTELGQLCETFPGIAVCVEPESVEALVAGIRQALLLPKHNTVAREYAERTLDKENVLRQFINDIRG | soluble
MKIQCDVCEKAPATVICCADEAALCPQCDIEIHAANKLASKHQRLHLNSLSTKFPRCDICQEKAAFIFCVEDRALLCRDCDESIHVANSRSANHQRFLATGIKVALTSTICSKEIEKNQPEPSNNQQKANQIPAKSTSQQQQQPSSATPLPWAVDDFFHFSDIESTDKKGQLDLGAGELDWFSDMGFFGDQINDKALPAAEVPELSVSHLGHVHSYKPMKSNVSHKKPRFETRYDDDDEEHFIVPDLG | not soluble
MKISTQSEVEGVLIKALSEGKGIQHVELALKDLPAFDRKRARTTAITEVLTAASVAQQEAFEQSPSVEGKKWKHSGGKGIEPRSSHIELSGKVVQINETFTIPGSGELAKYPRDTDLSASERIHCHCALGPAVNEEIL | not soluble
MKIVFLECSVELVPRSLWSHPQVLKSARRYGIEPGDLLLDKSLHYNAMAELPAKWKRGRPDILHVALLTTTDSPLYNEGLLRIYFQVYDGRLFEVGTGVRVPKNYERFRGLVAQLLKTERVPPGEGEALIRLHSRSLAEFVEREGRFILMWEKGSPTTTTYVAARALSTGLPIGVGCFPRGEFKRSTLRKASEAYSIMGGAPLKTWGVASRIVYALERLKSPFTLEHHHHHH | soluble
MKIVIIGGFLGGGKTTVLNHLLAESLKESLKPAVIMNEFGKMSVDGALVSEDIPLSELTEGCICCAMKADVSEQLHQLYLKEQPDIVFIECSGIAEPVSVLDACLTPILAPFTTITHMIGVIDASMYKHIKSFPKDIQGLFYEQLAYCSVLFVNKIDSADVETTSKLLKDLEVINPEADIQVGMHGSVTLPISVRQMTATSDNKHESLHKTINHQFVQSPVTCTKAEFIKRLACLPSHIYRLKGFMTFEDTTHTYLIQFTQGQYELTPVAFSKKVPEYLVLIGKGISKEDYQCLEQLEHHHHHH | not soluble
MKIYYEHDADLGFILGKKVAVLGFGSQGHAHALNLKDSGVDVRVGLRKGSRSWEKAEAAGLRVLPVAEAVREADVVMVLLPDEKQAQVYREEVEPNLKEGGALAFAHGFNVHFGQIKPRKDLDVWMVAPKGPGHLVRSEYQKGSGVPALVAVHQDASGSAFPTALAYAKAIGAARAGVIATTFKDETETDLFGEQAVLCGGLTRLIRAGFETLVEAGYPPEMAYFETVHEVKLIVDLIYEAGLKGMRYSISNTAEYGDYTRGDLAVPLEETKRRMREILRQIQSGEFAREWMLENQVGSPVLEANRKRWAAHPIEEVGSRLRAMMPFLKARVMEEVG | soluble
MKKAGKKNSDAGKTFILISSSCSSCQKAIEFFDQNKISYVVENFYKKPISDKRFKDILSLSEDGTESLFSKRADQIKATNSVSVEELSISELIKLVRERPSLLRRPIIIQYNSSGIPKRMRIGYNSSEIKVFERKLIEPKPIIQQ | soluble
MKKALQVAMFSLFTVIGFNAQANEHHHETMSEAQPQVISATGVVKGIDLESKKITIHHDPIAAVNWPEMTMRFTITPQTKMSEIKTGDKVAFNFVQQGNLSLLQDIKVSQ | soluble
MKKATMLTYLEEQLEKHLGDYEVGLDWDRKNHTIEVIVRLYAENNEQVAIDDVDGTLSEEEFIEFEDGLLFYNPQKSVVDDEEYLVTIPYEGKKGLRKAVLDGFIHYLKVVLDEGQSDLLDFLSDETAEVFELHWEPADFEAMIKKVAETEKEQWIAYPSY | not soluble
MKKEQVEKRTYLAVDIGASSGRIMKSQRLANGQITIEEIHRFKNGFHQKDGYQRWDMASLVHELLLGLQKVKQLGIKECFIGIDTWGVDYCLLDQSGQLLDEPIAYRDGRTEAAVTNFSKGYSLEKLYQQTGIQVQPFNTIFQLFVEEKERLAAASQLLLIPDYLGYVFTGKAVIEATNASTTQLLNAGTKQWESELLDFLGIDETLFPTLVEPGTILGDLQTAAFPDYDLPNATLITIASHDTASAILGTPGIGDDWAYISSGTWSLLGIETTVTTISAEAFQENYTNEWGAQNTIRFLKNIMGMWLIQEVARHQNYQYSYAELAALAEKEPAFQQFIDVNDPRFLNPGNMITELQAYCRETQQTVPESPGELARCIYDNLALCYSVELEKLAQLTGIERKITTLHVVGGGSNNRLLNQLTADVANVTVNAGPGEAIALGNLLMQMIATGELKDIPAARTCIQTSFPTEIYQANPIDSTIKNRYQAFMKRSSL | not soluble
MKKFKNILFATQGLPGHSDALEQAIQLAYNNRGQLAGLIAFPAFPADLQRYQEPYEQSYLNTLMETVEACRSQHHIHKDEVPFPLMVEHSEQPAVAIIKSALNHHIDLLIKEAEPMTHSQQGFKALDMTLLRKCPCPVWLHRPLAKPKANRRVAVAIDPITTTEQQKALALRLLELSRSIANTCDSRLHIVSCWEYYLENYLHDQVWIQVEQQQIAEEIAQAKIRHEQALRQLIDESGITGELVIHHLHGKPDELIPEWVTQENIDILVMGTLARTGIAGFVIGNTAENIVQSIECSLVALKPEGFVSPIKNE | soluble
MKKGINRVVLVGTGAVGCSYAYCMINQAVAEEFVLVDVNEAKAEGEAMDLSHAVPFAPAPTRVWKGSYEDCKDADLVVITAGLPQKPGETRLDLVEKNAKIFKQIVRSIMDSGFDGIFLIATNPVDILTYVTWKESGLPKERVIGSGTTLDSARFRYMLGEYFNIGPHNIHAYIIGEHGDTELPVWSHVSVGIQKLQTLLEKDNTYNQEDLDKIFINVRDAAYHIIERKGATYYGIGMSLLRVTKAILNDENSVLTVSAYLEGQYGQKDVYIGVPAVLNRGGVREILEVELSEDEELKFDHSVQVLKETMAPVL | not soluble
MKKIAIFAKVHDPRCQGVASELIAWLEARGLIPLVEAHLARHLGGRQGIVPEDIPVLADMAVVLGGDGTLISAARLIGSRQIPILGVNLGSLGFLTEITLDELYPVLESCLSGDFQVTERMMLTVSVERNGEEICSHRVLNDVVINKGALARIIDMETEVSGIRLTTYKADGLIISTPTGSTGYSLSANGPIVHPSLECITITPICPHTLTNRPIVLESSSGVTVWLRSKDEDVYLTLDGQVGMELKCGDAVHVRRAAHRTRLVMSRSRNYFEVLRTKLKWGERAAALEHHHHHH | soluble
MKKILLVLNHSLAGFGSDEQAQLKPSGKKAPLGPGVTLLPFLQKQGAEIVATLYCGDQYYLENEEEVAKKFIGFAKKFHADAVLCGPAMHYPNFGEMAARLACKFNAAGIPAIAAMAEENPAVSHYYQQVPIVKMPKKGGIGLNNSFKQMAQLVVAKANGKETKQLEETSCF | not soluble
MKKKADFLELFAVEKPIIGVIHLKGKTDQEIQERAKKEIQIYSEHGVDAILMENYYGDYVQLEKALQYVTSLDLPIPIGVNVLNVDPLGFHLANKYHLQFLQIDSVVGHVKPRDEASLQAFFDLYRAKTTAKLIGGVRFKYQPMLSEKSVEEDLKIAQQRCDAIAVTENATGEETSLEKIKLFRKQLPEFPLIVAAGLNDKSVKEQLAICDAAIVGSNFKDTRKDTGDIYAPYVDSFMKIVKELRGELEHHHHHH | soluble
MKKLPNIHPGEVLMEEFLIPMEITSYRLAKEIGIPQTRVSEITKGRRRITADTALRLSKYFGNSPKFWLGLQDDYDIEEESQLIAEELKAIKKVVV | not soluble
MKKLQIAVGIIRNENNEIFITRRAADAHMANKLEFPGGKIEMGETPEQAVVRELQEEVGITPQHFSLFEKLEYEFPDRHITLWFWLVERWEGEPWGKEGQPGEWMSLVGLNADDFPPANEPVIAKLKRL | soluble
MKKLSFFLIATLSLGACSTATSPTGRHQVFSGVSQQQLNQLGEQAFVEIKAKEKISGNVRQNAYVRCVVDALVTELPLQWRHVKWETVLFLNEEPNAFALPGGKVGVNTGIFRAAKNQEQLAAVLGHEIGHVVSRHHEERITWQLGTQAGLGLLGVLAGTAYGDSAATAVNQIGGLTAQAAFLLPGSRTQEREADIVGQRLMAQAGFDPIQAVYLWKNMLAIAGQRPPQWLSTHPDPTNRIRQLEQQSAVLASVYAQARDAGRVPHCSPAALEHHHHHH | not soluble
MKKLTLREQQLVCLNILDYFHALCERYKISYSLGGGTLIGAIRHKGFIPWDDDIDVYMHRDEYQRFVDVWFQETHEHYNMETAEDILAQYTGEMAKIFDCRTQITDAKGRKSPMFMDIFIYDGVPNEPKIIYPLMKKHRRIKLRFSSCKKRWLRAKENTVQKAILNKLSHFLFSKMQKNLAQFQIKYPIKQCDYIGLVLSDYGGWQKSYMPKEYFNHVIYKEFEGRQFQVMNGYHEHLTQYYGDYMKLPPEEDQKPHHIQEAYILLEHHHHHH | not soluble
MKKPSKCQSPGDSSISAKENDAQSNRSRDSKVAPKSEGLATGLDETEWKSRLTTPEIVLKEIRTLEGVSYYHGMVARDLVESKLTRCGDYLIRATDNRIMEFEFILSFFNKKRIHSHLTIKCDVEAGKWALGLLSVNQFSSVVDLTNFYKTNPIGAGFFLKRAISKGKYMIAHDRIKYSPKDDLLGTGNFSDVFRGKIELENQMVNVALKTTKLLDDTMDPTKNVKANKIKKEMIQEAEVMSQLRHANVTSFFGIAVDRLPILLIIEFCNGGNLQGHLIKFGDRIGTNERFLYLHDASAGLNYIHAMSITHRDIAARNCLISVNGFVKLSDFGMGLKVRRNESAKKVAEDDDGKENKEPKLPVRWMSPELVDTPDAFSKMSDMWSLGILAYEIFTNATKPFFNLDDTDVMQTVKSGKHPPLPLSMGPDLIRLLKDVLVAAPTQRTTADKFYNELHVLCTQKGALSLNGLTINQIRGISRKRVEHWEGYIPQVVICDKNGNERDWGDAPQEMLANVVWRGKK | not soluble
MKKQHDTIIVLDFGSQYNQLIARRIREFGVYSELHPHTITAEEIKAMNPKGIIFSGGPNSVYGEGALHCDEKIFDLGLPIFGICYGMQLMTQQFGGTVERANHREYGKAVLKVENESKLYANLPEEQVVWMSHGDLVTGLPEGFVVDATSESCPIAGMSNEAKNLYGVQFHPEVRHSEHGNDLIKNFVFGVCGCSEGWNMENFIEVELEKIRETVGDKKVLCALSGGVDSSVVAVLIHKAIGDQLTCIFVDHGLLRKGEAEGVMKTFSEGFHMNVIKVDAKERFMNKLKGVEDPEQKRKIIGNEFIYVFDDEASKLEGMDFLAQGTLYTDIVESGTATAQTIKSHHNVGGLPEDMQFKLIEPLNTLFKDEVRVLGSELGIPDEIVWRQPFPGPGLGIRVLGEITEEKLEIVRESDAILREEIIKAGLDREIWQYFTALPGMRSVGVMGDERTYDYTVGIRAVTSIDGMTADWARIPWDVLEKISVRIVNEVKHVNRIVYDVTSKPPATIEWE | not soluble
MKKRYRAINDYYRELFGEKIFKLPIDAGFDCPNRDGTVARGGCTFCTVSGSGDAIVAPEAPIREQFYKEIDFMHRKWPEVNKYLVYFQNFTNTHAKLEIIKERYEQAINEPGVIGINIGTRPDCLPDETIYYLAELSERMHVTLELGLQTTYEATSALINRAHSYDLYKKTVKRIRELAPKVEIVSHLINGLPGETHDMMVENVRRCVTDNDIQGIKLHLLHLMTNTRMQRDYHEGRLRLLSQEDYISIICDQLEIIPKHIVIHRITGDAPRHMLIGPMWSLNKW | not soluble
